{"source": "patent US10428327B2", "about": "“Compositions and methods for enhancing homologous recombination” (LIFE TECHNOLOGIES CORPORATION, priority 2016, dated 2019)", "molecules": {"B1": {"name": "30-5′: dsDNA donor with 30 nucleotide 5′ overhangs, annealed SEQ ID 85 and 86 (nucleic acid)", "chain 1": "dG*dT*dGdCdCdCdTdGdGdCdCdCdAdCdCdCdTdCdGdTdGdAdCdCdAdCdCdCdTdGdAdCdCdGdAdCdTdAdCdAdAdAdGdAdCdGdAdTdGdAdCdGdAdCdAdAdGdAdAdTdTdC*dT*dT", "chain 2": "dG*dT*dGdGdTdCdGdGdGdGdTdAdGdCdGdGdCdTdGdAdAdGdCdAdCdTdGdCdAdCdGdCdCdGdTdAdAdGdAdAdTdTdCdTdTdGdTdCdGdTdCdAdTdCdGdTdCdTdTdTdGdTdAdG*dT*dC", "modifications": "Two annealed DNA oligonucleotides with 5' overhangs, further chemistry not fully specified"}, "B2": {"name": "15-3′: dsDNA donor with 15 nucleotide 3′ overhangs, annealed SEQ ID 83 and 84 (nucleic acid)", "chain 1": "dG*dA*dCdTdAdCdAdAdAdGdAdCdGdAdTdGdAdCdGdAdCdAdAdGdAdAdTdTdCdTdTdAdCdGdGdCdGdTdGdCdAdGdT*dG*dC", "chain 2": "dA*dA*dGdAdAdTdTdCdTdTdGdTdCdGdTdCdAdTdCdGdTdCdTdTdTdGdTdAdGdTdCdGdGdTdCdAdGdGdGdTdGdGdTdC*dA*dC", "modifications": "further chemistry not fully specified"}}, "key": {"[1]": {"system": "rabbit embryos", "details": "in vitro and in vivo; cited from earlier work"}, "[2]": {"biological_target": "T1, DNA ligase IV (Homo sapiens, UniProt P49917)", "T1 sequence (P49917 1-911)": "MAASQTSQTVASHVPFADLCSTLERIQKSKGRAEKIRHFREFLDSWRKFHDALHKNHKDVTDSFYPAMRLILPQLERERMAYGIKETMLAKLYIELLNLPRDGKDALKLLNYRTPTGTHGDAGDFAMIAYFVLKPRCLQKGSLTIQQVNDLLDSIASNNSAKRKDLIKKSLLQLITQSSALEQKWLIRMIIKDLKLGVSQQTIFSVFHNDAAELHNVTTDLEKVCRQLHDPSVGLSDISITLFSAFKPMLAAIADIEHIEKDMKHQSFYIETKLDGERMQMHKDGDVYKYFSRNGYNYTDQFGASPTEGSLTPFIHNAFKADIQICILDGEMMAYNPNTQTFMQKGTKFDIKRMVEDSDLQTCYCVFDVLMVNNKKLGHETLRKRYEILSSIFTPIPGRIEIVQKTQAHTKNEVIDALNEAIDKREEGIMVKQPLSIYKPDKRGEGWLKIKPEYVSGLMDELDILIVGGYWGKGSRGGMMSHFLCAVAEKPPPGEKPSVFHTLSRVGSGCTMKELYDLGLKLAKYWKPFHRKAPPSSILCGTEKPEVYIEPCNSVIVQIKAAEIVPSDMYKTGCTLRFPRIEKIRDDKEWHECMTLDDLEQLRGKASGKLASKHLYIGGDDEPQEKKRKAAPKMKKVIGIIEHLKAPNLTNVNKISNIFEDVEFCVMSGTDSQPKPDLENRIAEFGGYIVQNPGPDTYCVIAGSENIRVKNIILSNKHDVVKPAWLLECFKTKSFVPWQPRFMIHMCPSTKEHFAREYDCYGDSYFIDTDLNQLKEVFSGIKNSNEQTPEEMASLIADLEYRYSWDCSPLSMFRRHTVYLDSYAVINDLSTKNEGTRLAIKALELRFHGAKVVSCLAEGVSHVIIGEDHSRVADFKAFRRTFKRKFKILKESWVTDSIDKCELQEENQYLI", "details": "cited from earlier work"}, "[3]": {"system": "hESCs", "details": "synchronization at M phase prior to nucleofection; cited from earlier work"}, "[4]": {"system": "HEK293T cells", "details": "synchronization at M phase prior to nucleofection; cited from earlier work"}, "[5]": {"system": "eBFP locus in HEK293 cells expressing eBFP", "experiment": "EcoRI restriction digestion of PCR-amplified eBFP locus (FLAG tag/EcoRI insertion)", "assay_type": "cell-based", "details": "48 hours"}, "[6]": {"system": "eBFP locus in HEK293 cells expressing eBFP", "experiment": "Genomic cleavage and detection assay at eBFP locus after Cas9 RNP and FLAG/EcoRI donor", "assay_type": "cell-based", "details": "sequential delivery, 48 hours post transfection", "from_the_text": "FIG. 11. Insertion of a FLAG tag along with an EcoRI site using dsDNA donor with single-stranded overhangs. (A) Various donor DNA molecules containing a 30-base FLAG tag along with an EcoRI site were designed and synthesized, including single-stranded DNA donor (ssDNA), blunt-end dsDNA donor (blunt), dsDNA donor with 5′ overhang (5′), dsDNA donor with 3′ overhang (3′). The length of overhangs varied from 6 nucleotides (6), 15 nucleotides (15) to 30 nucleotides (30). The 3′ and 5′ ends of the oligonucleotides harbored two consecutive phosphorothioate-modified bases (Table 4). The short dsDNA donors with and without overhangs were prepared by annealing two short DNA oligonucleotides. […] At 48 hours post transfection, the eBFP locus was PCR-amplified. The resulting PCR fragments were analyzed by the genomic cleavage and detection assays to determine the percentage of Indel or subjected to restriction digestion with EcoRI to determine the percentage of digestion. (B) Length of 3′ overhang. […] Alternatively, a dsDNA donor with 30-base 3′ overhang but without phosphorothioate modification (30-3′n) was used. The percentage of digestion with EcoRI was determined at 48 hours post transfection. (C) Dose effect. […] The eBFP loci were PCR-amplified. The resulting PCR fragments were analyzed by EcoRI digest. (D) Sequencing verification. The PCR fragments were cloned into E. coli and 192 clones were randomly picked for sequencing. The relative percentage of wild type (wt), NHEJ, and HDR clones derived from either ssDNA donor (ssDNA) or dsDNA with 3′ overhangs (3′ overhang) was plotted. The white rectangles represented the population of clones that contained the insert but with a point mutation. Examples of edited clones were shown in (E) (not representing the actual percentages of NHEJ and HDR). The underlined sequences represented the FLAG tag along with an RI site. FIG. 11 discloses SEQ ID NOs: 15-24, respectively, from top to bottom.\nThe genomic cleavage efficiency was measured by GENEART® Genomic Cleavage Detection kit according to manufacturer's instructions. The primer sequences for PCR amplification of each genomic locus are described in Table 4. Cells were analyzed at 48 to 72 hours post transfection. The cleavage efficiencies were calculated based on the relative agarose gel band intensity, which were quantified using an […]® gel documentation system running […]®, Version 3.4.0.0. ProteinSimple (San Jose, Calif., USA).\nTo extend this concept, we hypothesized that a dsDNA donor harboring single-stranded overhangs would facilitate HDR to higher levels than with blunt ends. To test this hypothesis, we designed and generated a series of donor molecules with either blunt end, 5′ end protrusion or 3′ end protrusion by annealing two small single-stranded oligonucleotides. A single-stranded DNA donor was used as a control. The 5′ and 3′ ends of oligonucleotides were protected with two consecutive phosphorothioate-modified bases (Table 3). For proof of concept, we inserted a 30 nucleotide FLAG epitope tag along with an EcoRI site into the BFP gene stably expressed in HEK293 cells. The gRNA was designed to target the top DNA strand. The length of single-stranded overhangs varied from 6 nucleotides to 30 nucleotides. The oligonucleotides were denatured and re-annealed prior to transfection forming the structures described in FIG. 11A. […] Co-delivery of Cas9 RNPs and donor DNA gave lower HDR efficiencies. At 48 hours post transfection, the genomic locus was PCR-amplified and the editing efficiencies were determined using a GCD assay. […] When the PCR fragments were subjected to restriction digestion with EcoRI to identify properly inserted constructs, only the donor DNA molecules containing 30-base single-stranded overhangs at the 3′ ends produced the expected digested fragments (30-3′ in FIG. 11, panel A). […]"}, "[7]": {"details": "FIG. 11A, donor configurations, sequential delivery"}}, "note": "Oligonucleotides are written 5' to 3', each unit as a sugar letter and its base; * is a phosphorothioate linkage, no mark a phosphodiester; rarer units and linkages stand in square brackets, end groups in braces. Plain capitals give the bases only. d = 2'-deoxy (DNA)", "data": [{"molecule": "O=C(Nc1ccc(Br)cc1)c1ccc(Br)c(S(=O)(=O)NCc2ccccc2)c1", "note": "[RS-1]", "values": [{"measurement": "increased knock-in efficiency", "setting": "[1]", "value": "2-5 fold"}]}, {"molecule": "Scr7", "values": [{"measurement": "increase in HDR efficiency", "setting": "[2]", "value": "up to 19 fold"}]}, {"molecule": "COC(=O)Nc1nc2ccc(C(=O)c3cccs3)cc2[nH]1", "note": "[nocodazole]", "values": [{"measurement": "HDR", "setting": "[3]", "value": "≤ 1.6", "unit": "%"}, {"measurement": "HDR", "setting": "[4]", "value": "up to 38%"}]}, {"molecule": "B1", "values": [{"measurement": "Avg (% digestion)", "setting": "[5]; [7]", "value": 1.00, "unit": "%"}, {"measurement": "Avg (% Indels)", "setting": "[6]", "value": 80.00, "unit": "%"}]}, {"molecule": "B2", "values": [{"measurement": "Avg (% digestion)", "setting": "[5]; [7]", "value": 0.50, "unit": "%"}, {"measurement": "Avg (% digestion)", "setting": "[5]; FIG. 11B, length of 3′ overhang", "value": 0.8, "unit": "%"}, {"measurement": "Avg (% Indels)", "setting": "[6]", "value": 81.00, "unit": "%"}]}]}
